Results published in patent US20200115447A1 (Chugai, published 2020).

Experiments:
[1] = biological target: T1, soluble human IL-6 receptor (human, UniProt P08887 20-357); experiment: SPR (Biacore T100), about 300 RU of antibody captured via protein A/G on a CM5 chip, human IL-6 receptor injected for 3 min, pH 7.4, 1.2 mM CaCl2, 37 C
T1 construct: also called hsIL-6R
T1 sequence: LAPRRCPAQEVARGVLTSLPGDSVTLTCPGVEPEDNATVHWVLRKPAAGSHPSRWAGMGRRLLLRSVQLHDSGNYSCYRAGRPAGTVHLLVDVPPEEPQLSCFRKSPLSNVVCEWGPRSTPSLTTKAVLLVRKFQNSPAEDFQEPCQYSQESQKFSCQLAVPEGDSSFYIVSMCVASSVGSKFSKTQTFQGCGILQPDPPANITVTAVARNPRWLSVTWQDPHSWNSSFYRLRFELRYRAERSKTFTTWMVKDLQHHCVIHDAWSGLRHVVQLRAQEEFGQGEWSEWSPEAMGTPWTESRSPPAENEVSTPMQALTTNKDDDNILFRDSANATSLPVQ

[2] = biological target: T1, soluble human IL-6 receptor; experiment: SPR (Biacore T100), antibody captured via protein A/G on a CM5 chip, human IL-6 receptor injected for 3 min, 1.2 mM CaCl2, pH 7.4, 37 C
[3] = biological target: T2, mFcγRII extracellular domain with C-terminal His-tag (mouse, UniProt P08101 30-210); experiment: Biacore SPR, antibody captured on Protein L, FcγR extracellular domain as analyte, 25 C, 1:1 Langmuir fit
T2 construct: extracellular domain; also called mouse FcγRII
T2 sequence (looked up): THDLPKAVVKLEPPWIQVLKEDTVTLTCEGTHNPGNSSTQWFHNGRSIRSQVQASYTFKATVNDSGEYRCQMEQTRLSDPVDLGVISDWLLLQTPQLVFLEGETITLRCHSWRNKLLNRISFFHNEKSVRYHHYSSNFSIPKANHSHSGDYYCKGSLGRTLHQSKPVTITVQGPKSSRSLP

[4] = biological target: T3, mFcγRIII extracellular domain with C-terminal His-tag (mouse, UniProt P08508 31-215); experiment: as above
T3 construct: extracellular domain; also called mouse FcγRIII
T3 sequence (looked up): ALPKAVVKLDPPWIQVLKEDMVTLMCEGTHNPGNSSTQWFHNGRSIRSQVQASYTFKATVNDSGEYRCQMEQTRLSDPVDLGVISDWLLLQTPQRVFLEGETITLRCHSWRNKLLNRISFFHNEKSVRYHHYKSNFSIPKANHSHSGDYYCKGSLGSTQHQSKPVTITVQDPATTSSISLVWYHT

[5] = biological target: T4, mFcγRI extracellular domain with C-terminal His-tag (mouse, UniProt P26151 25-297); experiment: Biacore SPR, antibody captured on Protein L, FcγR extracellular domain as analyte, 25 C
T4 construct: extracellular domain; also called mouse FcγRI
T4 sequence (looked up): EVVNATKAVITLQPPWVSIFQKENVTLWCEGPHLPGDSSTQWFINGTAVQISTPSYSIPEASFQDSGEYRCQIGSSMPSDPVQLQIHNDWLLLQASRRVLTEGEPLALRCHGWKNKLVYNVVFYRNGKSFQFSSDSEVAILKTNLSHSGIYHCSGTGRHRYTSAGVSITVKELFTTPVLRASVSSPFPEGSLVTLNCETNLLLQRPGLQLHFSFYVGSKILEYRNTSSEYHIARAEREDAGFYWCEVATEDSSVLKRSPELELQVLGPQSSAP

[6] = biological target: T5, mFcγRIV extracellular domain with C-terminal His-tag (mouse); experiment: Biacore SPR, antibody captured on Protein L, FcγR extracellular domain as analyte, 25 C, 1:1 Langmuir fit
T5 construct: extracellular domain; also called mouse FcγRIV
T5 sequence (A0A0B4J1G0 21-203, looked up): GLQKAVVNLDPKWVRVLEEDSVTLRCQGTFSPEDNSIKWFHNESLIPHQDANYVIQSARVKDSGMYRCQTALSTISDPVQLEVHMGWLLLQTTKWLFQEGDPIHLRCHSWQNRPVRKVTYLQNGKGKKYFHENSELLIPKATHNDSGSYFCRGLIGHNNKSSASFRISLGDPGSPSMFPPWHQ

[7] = biological target: T4, mFcγRI extracellular domain with …; experiment: as above
mouse FcRn = biological target: T6, mouse FcRn (mouse, UniProt Q61559 22-297; P01887 21-119, limits assumed); experiment: Biacore SPR, mouse FcRn, pH 7.0
T6 sequence (looked up) 1: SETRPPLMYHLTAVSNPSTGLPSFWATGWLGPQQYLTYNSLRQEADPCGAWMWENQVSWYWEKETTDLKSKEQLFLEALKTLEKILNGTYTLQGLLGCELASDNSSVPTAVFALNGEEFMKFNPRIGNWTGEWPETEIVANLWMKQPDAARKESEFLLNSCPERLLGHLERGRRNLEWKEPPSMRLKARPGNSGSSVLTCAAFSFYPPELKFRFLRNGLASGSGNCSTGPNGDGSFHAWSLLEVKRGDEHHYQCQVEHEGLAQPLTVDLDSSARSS
T6 sequence (looked up) 2: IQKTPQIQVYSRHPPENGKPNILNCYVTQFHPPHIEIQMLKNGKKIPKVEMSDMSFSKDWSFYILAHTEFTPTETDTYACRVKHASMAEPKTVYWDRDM

B1: 6RpH#02 (antibody, human IgG1, kappa, V domains shown)
VH: QVQLVQSGAEVKKPGSSVKVSCKASGGTFSSYAISWVRQAPGQGLEWMGGIIPIFGTANYAQKFQGRVTITADESTSTAYMELSSLRSEDTAVYYCMINGVWEGGMDVWGQGTTVTVSS
VL: DIQMTQSPSSLSASVGDRVTITCRASQSIHSHLNWYQQKPGKAPKLLIYHASKLQSGVPSRFSGSGSGTDFTLTISSLQPEDFATYYCQQHGNSPLTFGQGTKVEIKR
**Q.** Does B1 bind [1]?
**A.** Result: binds

B2: 6RC1IgG_012 (antibody, V domains shown)
VH: QVQLVQSGAEVKKPGASVKVSCKASGYTFTSYGISWVRQAPGQGLEWMGWISAYNGNTNYAQKLQGRVTMTTDTSTSTAYMELRSLRSDDTAVYYCARATYYYDSSAPAFDIWGQGTMVTVSS
VL: DIQMTQSPSSLSASVGDRVTITCRASQSIEDDLAWYQQKPGKAPKLLIYEASTLQSGVPSRFSGSGSGTDFTLTISSLQPEDFATYYCQQHDDSPLTFGQGTKVEIKR
**Q.** Does B2 bind [2]?
**A.** Result: binds

B3: 6RpH#01 (antibody, human IgG1, kappa, V domains shown)
VH: EVQLVQSGAEVKKPGSSVKVSCKASGGTFSSYAISWVRQAPGQGLEWMGGIIPIFGTANYAQKFQGRVTITADESTSTAYMELSSLRSEDTAVYYCARASIYCSSTSCYEPPYYYYMDVWGKGTMVTVSS
VL: DIQMTQSPSSLSASVGDRVTITCRASQSISSHLAWYQQKPGKAPKLLIYAASHLQSGVPSRFSGSGSGTDFTLTISSLQPEDFATYYCQQSHNYPLTFGQGTKVEIKR
**Q.** Does B3 bind [1]?
**A.** Result: binds

B4: 6RC1IgG_010 (antibody, V domains shown)
VH: QVQLVQSGAEVKKPGSSVKVSCKASGGTFSSYAISWVRQAPGQGLEWMGGIIPIFGTANYAQKFQGRVTITADESTSTAYMELSSLRSEDTAVYYCARAAFLEWPIWGSEYFQHWGQGTLVTVSS
VL: DIQMTQSPSSLSASVGDRVTITCRASQSIEDDLAWYQQKPGKAPKLLIYHASSLQSGVPSRFSGSGSGTDFTLTISSLQPEDFATYYCQQRDSYPLTFGQGTKVEIKR
**Q.** Does B4 bind [2]?
**A.** Result: binds

B5: Tocilizumab (antibody, human IgG1, kappa, V domains shown)
VH: QVQLQESGPGLVRPSQTLSLTCTVSGYSITSDHAWSWVRQPPGRGLEWIGYISYSGITTYNPSLKSRVTMLRDTSKNQFSLRLSSVTAADTAVYYCARSLARTTAMDYWGQGSLVTVSS
VL: DIQMTQSPSSLSASVGDRVTITCRASQDISSYLNWYQQKPGKAPKLLIYYTSRLHSGVPSRFSGSGSGTDFTFTISSLQPEDIATYYCQQGNTLPYTFGQGTKVEIKR
notes: also called anti-IL-6R antibody (tocilizumab); control antibody
**Q.** Does B5 bind [2]?
**A.** Result: binds

B6: 6RC1IgG_019 (antibody, V domains shown)
VH: EVQLVQSGAEVKKPGSSVKVSCKASGGTFSSYAISWVRQAPGQGLEWMGGIIPIFGTANYAQKFQGRVTITADESTSTAYMELSSLRSEDTAVYYCARDRGSGFNWGNYAFDIWGQGFSVTVSS
VL: DIQMTQSPSSLSASVGDRVTITCRASQSIEDDLAWYQQKPGKAPKLLIYEASNLQSGVPSRFSGSGSGTDFTLTISSLQPEDFATYYCQQYDRYPYTFGQGTKVEIKR
**Q.** Does B6 bind [2]?
**A.** Result: binds

B7: Fv4-mIgG1 (antibody)
heavy: QVQLQESGPGLVKPSETLSLTCAVSGHSISHDHAWSWVRQPPGEGLEWIGFISYSGITNYNPSLQGRVTISRDNSKNTLYLQMNSLRAEDTAVYYCARSLARTTAMDYWGEGTLVTVSSAKTTPPSVYPLAPGSAAQTNSMVTLGCLVKGYFPEPVTVTWNSGSLSSGVHTFPAVLQSDLYTLSSSVTVPSSTWPSETVTCNVAHPASSTKVDKKIVPRDCGCKPCICTVPEVSSVFIFPPKPKDVLTITLTPKVTCVVVDISKDDPEVQFSWFVDDVEVHTAQTQPREEQFNSTFRSVSELPIMHQDWLNGKEFKCRVNSAAFPAPIEKTISKTKGRPKAPQVYTIPPPKEQMAKDKVSLTCMITDFFPEDITVEWQWNGQPAENYKNTQPIMDTDGSYFVYSKLNVQKSNWEAGNTFTCSVLHEGLHNHHTEKSLSHSPGK
light: DIQMTQSPSSLSASVGDSVTITCQASTDISSHLNWYQQKPGKAPELLIYYGSHLLSGVPSRFSGSGSGTDFTFTISSLEAEDAATYYCGQGNRLPYTFGQGTKVEIERADAAPTVSIFPPSSEQLTSGGASVVCFLNNFYPKDINVKWKIDGSERQNGVLNSWTDQDSKDSTYSMSSTLTLTKDEYERHNSYTCEATHKTSTSPIVKSFNRNEC
notes: VH3-mIgG1 with VL3-mCK; copies: 2 + 2
**Q.** Which Kd [3] does the source give for B7 here?
**A.** The Kd was 570 nM.

**Q.** And the Kd [4]?
**A.** The Kd was 85 nM.

**Q.** Does B7 bind [5]?
**A.** Result: no binding

B8: Fv4-mIgG2a (antibody)
heavy: QVQLQESGPGLVKPSETLSLTCAVSGHSISHDHAWSWVRQPPGEGLEWIGFISYSGITNYNPSLQGRVTISRDNSKNTLYLQMNSLRAEDTAVYYCARSLARTTAMDYWGEGTLVTVSSAKTTAPSVYPLAPVCGDTTGSSVTLGCLVKGYFPEPVTLTWNSGSLSSGVHTFPAVLQSDLYTLSSSVTVTSSTWPSQSITCNVAHPASSTKVDKKIEPRGPTIKPCPPCKCPAPNLLGGPSVFIFPPKIKDVLMISLSPIVTCVVVDVSEDDPDVQISWFVNNVEVHTAQTQTHREDYNSTLRVVSALPIQHQDWMSGKEFKCKVNNKDLPAPIERTISKPKGSVRAPQVYVLPPPEEEMTKKQVTLTCMVTDFMPEDIYVEWTNNGKTELNYKNTEPVLDSDGSYFMYSKLRVEKKNWVERNSYSCSVVHEGLHNHHTTKSFSRTPGK
light: DIQMTQSPSSLSASVGDSVTITCQASTDISSHLNWYQQKPGKAPELLIYYGSHLLSGVPSRFSGSGSGTDFTFTISSLEAEDAATYYCGQGNRLPYTFGQGTKVEIERADAAPTVSIFPPSSEQLTSGGASVVCFLNNFYPKDINVKWKIDGSERQNGVLNSWTDQDSKDSTYSMSSTLTLTKDEYERHNSYTCEATHKTSTSPIVKSFNRNEC
notes: VH3-mIgG2a with VL3-mCK; copies: 2 + 2
**Q.** For B8, which Kd [6] is on record?
**A.** Its Kd is 3.2 nM.

**Q.** What about the Kd [7] of the same binder?
**A.** Its Kd is 3.9 nM.

**Q.** And the Kd [3]?
**A.** Its Kd is 480 nM.

**Q.** And the Kd [4]?
**A.** Its Kd is 45 nM.

B9: Fv4-mFa30 (antibody, mouse IgG2a, kappa)
heavy: QVQLQESGPGLVKPSETLSLTCAVSGHSISHDHAWSWVRQPPGEGLEWIGFISYSGITNYNPSLQGRVTISRDNSKNTLYLQMNSLRAEDTAVYYCARSLARTTAMDYWGEGTLVTVSSAKTTAPSVYPLAPVCGDTTGSSVTLGCLVKGYFPEPVTLTWNSGSLSSGVHTFPAVLQSDLYTLSSSVTVTSSTWPSQSITCNVAHPASSTKVDKKIEPRGPTIKPCPPCKCPAPNLLGGPDVFIFPPKIKDVLYISLEPIVTCVVVDVSEDDPDVQISWFVNNVEVHTAQTQTHREDYNSTLRVVSALPIQHQDWMSGKEFKCKVNNDDYPAPIERTISKPKGSVRAPQVYVLPPPEEEMTKKQVTLTCMVTDFMPEDIYVEWTNNGKTELNYKNTEPVLDSDGSYFMYSKLRVEKKNWVERNSYSCSVVHEGLKFHHTTKSFSRTPGK
light: DIQMTQSPSSLSASVGDSVTITCQASTDISSHLNWYQQKPGKAPELLIYYGSHLLSGVPSRFSGSGSGTDFTFTISSLEAEDAATYYCGQGNRLPYTFGQGTKVEIERADAAPTVSIFPPSSEQLTSGGASVVCFLNNFYPKDINVKWKIDGSERQNGVLNSWTDQDSKDSTYSMSSTLTLTKDEYERHNSYTCEATHKTSTSPIVKSFNRNEC
notes: VH3-mFa30 with VL3-mCK; copies: 2 + 2
**Q.** B9 was tested. Which Kd [6] did it give?
**A.** Its Kd is 19 nM.

**Q.** And the Kd [7]?
**A.** Its Kd is 0.99 nM.

**Q.** And the Kd [3]?
**A.** The Kd was 8.1 nM.

**Q.** And the Kd [4]?
**A.** The Kd was 5.3 nM.

**Q.** What about the Kd (mouse FcRn) of the same binder?
**A.** The Kd was 3.5 nM.
